Consider 1 protein from patent US20200323863.

Series [1] deals with YAP1 Recombinant Protein (Abnova H00010413-P01), P46937.
In series [2] the target is T1, GST-MOB1 (GST fusion of MOB1, from pGEX-HA-MOB1), Q9H8S9.
T1 chain: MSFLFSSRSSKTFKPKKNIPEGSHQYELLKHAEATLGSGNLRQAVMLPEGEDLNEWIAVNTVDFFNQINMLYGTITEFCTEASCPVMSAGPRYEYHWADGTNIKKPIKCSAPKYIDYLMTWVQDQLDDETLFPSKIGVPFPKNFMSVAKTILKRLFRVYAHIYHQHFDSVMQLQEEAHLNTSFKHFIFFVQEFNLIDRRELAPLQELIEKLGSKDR

B1: active recombinant human FAK (catalytic domain, FAK-C) (protein)
chain: ETDDYAEIIDEEDTYTMPSTRDYEIQRERIELGRCIGEGQFGDVHQGIYMSPENPALAVAIKTCKNCTSDSVREKFLQEALTMRQFDHPHIVKLIGVITENPVWIIMELCTLGELRSFLQVRKYSLDLASLILYAYQLSTALAYLESKRFVHRDIAARNVLVSSNDCVKLGDFGLSRYMEDSTYYKASKGKLPIKWMAPESINFRRFTSASDVWMFGVCMWEILMHGVKPFQGVKNNDVIGRIENGERLPMPPNCPPTLYSLMTKCWAYDPSRRPRFTELKAQLSTILEEEKAQQEERMRMESRRQ
On to B1, for which the “YAP Y357 phosphorylation in an in vitro kinase reaction (immunoblot)” value in series [1] is listed as “FAK was able to phosphorylate YAP at Y357 in vitro”. For the same protein, in series [2], the “Y26 phosphorylation of GST-MOB1 in an in vitro kinase reaction (immunoblot)” value is given as “FAK was able to directly phosphorylate MOB1 on its Y26 by in vitro kinase reaction using purified recombinant proteins”.
